Numbering of substitutions follows the chain as printed. Blank lines part the entries; values can stand above or below the binder they belong to.
Tests used:
[1] = molecular target: T1, LRP6 E1E2 Arg141Met (human, UniProt O75581 20-631); assay: BLI steady-state affinity
T1 construct: range 20-631; also called LRP6 E1E2 R141M
T1 sequence (looked up): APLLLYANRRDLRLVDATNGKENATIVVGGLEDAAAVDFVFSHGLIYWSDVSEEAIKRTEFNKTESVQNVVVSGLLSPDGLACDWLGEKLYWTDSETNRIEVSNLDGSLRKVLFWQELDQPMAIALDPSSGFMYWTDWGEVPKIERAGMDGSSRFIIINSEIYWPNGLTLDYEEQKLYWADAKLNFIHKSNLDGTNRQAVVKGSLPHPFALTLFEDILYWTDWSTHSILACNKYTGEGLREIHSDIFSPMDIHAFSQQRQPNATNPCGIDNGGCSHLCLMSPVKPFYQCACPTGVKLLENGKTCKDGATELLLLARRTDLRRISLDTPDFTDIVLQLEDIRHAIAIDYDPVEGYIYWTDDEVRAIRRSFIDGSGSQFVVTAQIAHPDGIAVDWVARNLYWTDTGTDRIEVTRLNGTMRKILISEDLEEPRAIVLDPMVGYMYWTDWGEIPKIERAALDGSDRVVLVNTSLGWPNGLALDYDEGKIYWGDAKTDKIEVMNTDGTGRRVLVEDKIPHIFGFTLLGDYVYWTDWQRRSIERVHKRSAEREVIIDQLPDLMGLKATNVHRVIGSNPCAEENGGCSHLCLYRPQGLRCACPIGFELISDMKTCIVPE
Protocol: (§1) Binding kinetics were measured by biolayer interferometry using an Octet Red instrument (ForteBio) as previously described (11). Streptavidin (SA) biosensors were loaded with biotinylated hLRP6 in 50 mMTris, pH 8, 300 mM NaCl, 5% (v/v) glycerol, and 0.05% (w/v) Triton X-100. The loaded biosensors were washed in the same buffer before carrying out association and dissociation measurements for the indicated times. The Kd of each interaction was determined using steady state-analysis through the Octet Red software v6.3. Each reported value represents an average of three or more experiments at different concentrations, with a fitted experimental curve for which the square of the correlation coefficient (R²) is above 0.96.

[2] = molecular target: T2, LRP6 E1E2 Asn185Ser (human, UniProt O75581 20-631); assay: BLI steady-state affinity
T2 construct: range 20-631; also called LRP6 E1E2 N185S (analogue of LRP5 BMD mutation Asn198Ser)
T2 sequence (looked up): T1 sequence (looked up) with M122R, N166S
Protocol: as §1

[3] = molecular target: T3, human LRP6 construct E4 (T933-Q1253) (human, UniProt O75581 933-1253, biotinylated for biolayer interferometry); assay: BLI, biotinylated LRP6 on streptavidin tips
T3 construct: range 933-1253; also called LRP6 E4
T3 sequence (looked up): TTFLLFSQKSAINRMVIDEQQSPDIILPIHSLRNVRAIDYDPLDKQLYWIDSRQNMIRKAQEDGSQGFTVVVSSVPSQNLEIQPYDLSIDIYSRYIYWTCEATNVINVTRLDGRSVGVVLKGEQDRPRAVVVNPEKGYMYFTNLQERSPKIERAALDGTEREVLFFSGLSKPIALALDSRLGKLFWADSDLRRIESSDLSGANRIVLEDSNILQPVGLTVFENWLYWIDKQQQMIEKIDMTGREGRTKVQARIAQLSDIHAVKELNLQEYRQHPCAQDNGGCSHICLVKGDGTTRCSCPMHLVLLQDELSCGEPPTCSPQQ
Protocol: as §1
Purified receptors contained individual β-propeller-EGF-like units (E1, E2, or E4), two β-propellers (E1E2 or E3E4), or four β-propellers (E1E4))—as follows: […]

[4] = molecular target: T4, human LRP6 construct E1E2 (amino acids A20-E631) (human, UniProt O75581 20-631, biotinylated for biolayer interferometry); assay: BLI (Octet Red), biotinylated LRP6 on streptavidin tips, steady state
T4 construct: range 20-631; also called LRP6 E1E2
T4 sequence (looked up): T1 sequence (looked up) with M122R
Protocol: as §1

[5] = molecular target: T5, human LRP6 construct E3E4 (amino acids E631-Q1253) (human, UniProt O75581 631-1253, biotinylated for biolayer interferometry); assay: as above
T5 construct: range 631-1253; also called LRP6 E3E4
T5 sequence (looked up): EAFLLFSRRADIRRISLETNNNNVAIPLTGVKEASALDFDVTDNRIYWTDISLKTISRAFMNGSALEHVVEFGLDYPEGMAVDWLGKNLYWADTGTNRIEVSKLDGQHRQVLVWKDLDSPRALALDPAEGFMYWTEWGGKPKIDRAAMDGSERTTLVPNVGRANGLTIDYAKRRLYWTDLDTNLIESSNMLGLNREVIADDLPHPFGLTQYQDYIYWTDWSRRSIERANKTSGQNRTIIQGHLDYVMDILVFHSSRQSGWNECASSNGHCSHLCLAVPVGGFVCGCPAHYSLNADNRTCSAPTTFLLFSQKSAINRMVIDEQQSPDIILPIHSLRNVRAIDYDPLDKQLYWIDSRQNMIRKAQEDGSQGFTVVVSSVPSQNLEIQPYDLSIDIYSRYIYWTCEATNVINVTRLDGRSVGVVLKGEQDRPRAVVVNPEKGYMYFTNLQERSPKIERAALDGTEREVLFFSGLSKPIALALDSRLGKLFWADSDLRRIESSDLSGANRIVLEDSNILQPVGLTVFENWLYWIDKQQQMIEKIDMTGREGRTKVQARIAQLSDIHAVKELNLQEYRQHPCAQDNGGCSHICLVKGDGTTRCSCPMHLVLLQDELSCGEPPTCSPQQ
Protocol: as §1

[6] = molecular target: T6, human LRP6 construct E1 (amino acids A20-D325) (human, UniProt O75581 20-325); assay: synthetic peptides, competition IC50 (FIG. 17A)
T6 construct: range 20-325; In the Fab crystal E1 arose from E1E2 degraded beyond Arg 335; residues Ala20 to Lys324 were traced; also called LRP6 E1; E1 domain
T6 sequence (looked up): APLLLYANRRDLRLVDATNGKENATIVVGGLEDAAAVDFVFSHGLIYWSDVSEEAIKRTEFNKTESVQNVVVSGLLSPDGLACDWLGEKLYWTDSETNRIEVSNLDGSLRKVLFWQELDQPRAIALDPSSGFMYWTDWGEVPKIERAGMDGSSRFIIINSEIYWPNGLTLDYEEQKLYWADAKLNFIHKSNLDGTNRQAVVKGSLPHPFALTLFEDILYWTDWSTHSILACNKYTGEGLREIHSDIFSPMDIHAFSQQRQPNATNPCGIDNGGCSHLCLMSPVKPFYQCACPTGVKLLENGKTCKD

- fold loss in affinity against wild-type LRP6 E1E2 [1]: 29 fold
- fold loss in affinity against wild-type LRP6 E1E2 [2]: 183 fold
- binding result [3]: no binding
- Kd [4]: 22 nM
- Kd [5]: 51 nM
B1: Dkk1 (wild type) (ligand, human, UniProt O94907 32-266, looked up)
chain: TLNSVLNSNAIKNLPPPLGGAAGHPGSAVSAAPGILYPGGNKYQTIDNYQPYPCAEDEECGTDEYCASPTRGGDAGVQICLACRKRRKRCMRHAMCCPGNYCKNGICVSSDQNHFRGEIEETITESFGNDHSTLDGYSRRTTLSSKMYHTKGQEGSVCLRSSDCASGLCCARHFWSKICKPVLKEGQVCTKHRRKGSHGLEIFQRCYCGEGLSCRIQKDHHQASNSSRLHTCQRH
notes: also called Dickkopf 1; human Dkk1

- binding result [6]: no binding
Binder: NSNA [Dkk1 peptide lacking three residues from the C-terminus]

- binding result [6]: no binding
Binder: AIKN [Dkk1 peptide lacking three residues from the N-terminus]
